# Results as given in patent publication US20230312722A1 (NONA BIOSCIENCES SUZHOU, published 2023).
# T1: human B7H4 on the cell surface (human, UniProt Q7Z7D3 25-282)
# T1 construct: whole, on cells; also called CHOK1/hu B7H4; B7H4 on SK-BR-3
# T1 sequence (looked up): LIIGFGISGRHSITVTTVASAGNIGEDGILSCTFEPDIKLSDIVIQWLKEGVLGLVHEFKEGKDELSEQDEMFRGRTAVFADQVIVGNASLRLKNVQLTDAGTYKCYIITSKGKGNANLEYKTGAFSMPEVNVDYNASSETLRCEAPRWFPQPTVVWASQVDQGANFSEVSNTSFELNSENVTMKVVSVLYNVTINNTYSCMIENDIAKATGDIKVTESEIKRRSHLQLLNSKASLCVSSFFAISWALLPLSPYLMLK
# B1: PR002855 (bispecific antibody, human IgG1, kappa, lambda, L234A L235A)
# chain 1: EVQLLESGGGLVQPGGSLRLSCAASGFTFSTYAMNWVRQAPGKGLEWVSRIRSKYNNYATYYADSVKDRFTISRDDSKSTLYLQMNSLRAEDTAVYYCVRHGNFGNSYVSWFAYWGQGTLVTVSSASTKGPSVFPLAPSSKSTSGGTAALGCLVKDYFPEPVTVSWNSGALTSGVHTFPAVLQSSGLYSLSSVVTVPSSSLGTQTYICNVNHKPSNTKVDKKVEPKSC
# chain 2: QAVVTQEPSLTVSPGGTVTLTCRSSTGAVTTSNYANWVQQKPGQAPRGLIGGTNKRAPWTPARFSGSLLGDKAALTLLGAQPEDEAEYFCALWYSNLWVFGGGTKLTVLGQPKAAPSVTLFPPSSEELQANKATLVCLISDFYPGAVTVAWKADSSPVKAGVETTTPSKQSNNKYAASSYLSLTPEQWKSHRSYSCQVTHEGSTVEKTVAPTECSDKTHTCPPCPAPEAAGGPSVFLFPPKPKDTLMISRTPEVTCVVVDVSHEDPEVKFNWYVDGVEVHNAKTKPREEQYNSTYRVVSVLTVLHQDWLNGKEYKCKVSNKALGAPIEKTISKAKGQPREPQVYTLPPCREEMTKNQVSLWCLVKGFYPSDIAVEWESNGQPENNYKTTPPVLDSDGSFFLYSKLTVDKSRWQQGNVFSCSVMHEALHNHYTQKSLSLSPGK
# heavy: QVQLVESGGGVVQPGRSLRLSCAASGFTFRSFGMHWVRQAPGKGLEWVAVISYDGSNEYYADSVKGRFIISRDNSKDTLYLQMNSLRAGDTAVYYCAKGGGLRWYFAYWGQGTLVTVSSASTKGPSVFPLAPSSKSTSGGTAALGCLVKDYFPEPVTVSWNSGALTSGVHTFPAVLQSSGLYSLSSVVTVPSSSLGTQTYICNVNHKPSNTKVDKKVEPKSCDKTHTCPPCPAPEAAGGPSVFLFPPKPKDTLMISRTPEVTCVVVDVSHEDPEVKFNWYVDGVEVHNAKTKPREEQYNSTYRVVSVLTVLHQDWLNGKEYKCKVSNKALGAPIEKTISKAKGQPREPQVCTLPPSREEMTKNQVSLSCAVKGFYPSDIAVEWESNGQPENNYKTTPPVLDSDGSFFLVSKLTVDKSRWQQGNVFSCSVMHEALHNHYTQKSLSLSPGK
# light: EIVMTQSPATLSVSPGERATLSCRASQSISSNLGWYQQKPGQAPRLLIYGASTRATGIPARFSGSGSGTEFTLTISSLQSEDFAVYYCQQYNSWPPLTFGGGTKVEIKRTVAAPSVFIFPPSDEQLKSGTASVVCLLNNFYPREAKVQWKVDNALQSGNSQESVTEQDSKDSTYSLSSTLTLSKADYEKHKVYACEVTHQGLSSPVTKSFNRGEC
# notes: B7H4 x CD3, 1+1 Fab-Fc-crossFab (structure 4): CD3 Fab(cross Fd/LC) from PR001924 (chains 1 and 2), B7H4 Fab from PR001476 (chains 3 and 4)
# B2: PR002987 (bispecific antibody, human IgG1, kappa, lambda, L234A L235A)
# chain 1: B1 chain 1
# chain 2: not shown
# heavy: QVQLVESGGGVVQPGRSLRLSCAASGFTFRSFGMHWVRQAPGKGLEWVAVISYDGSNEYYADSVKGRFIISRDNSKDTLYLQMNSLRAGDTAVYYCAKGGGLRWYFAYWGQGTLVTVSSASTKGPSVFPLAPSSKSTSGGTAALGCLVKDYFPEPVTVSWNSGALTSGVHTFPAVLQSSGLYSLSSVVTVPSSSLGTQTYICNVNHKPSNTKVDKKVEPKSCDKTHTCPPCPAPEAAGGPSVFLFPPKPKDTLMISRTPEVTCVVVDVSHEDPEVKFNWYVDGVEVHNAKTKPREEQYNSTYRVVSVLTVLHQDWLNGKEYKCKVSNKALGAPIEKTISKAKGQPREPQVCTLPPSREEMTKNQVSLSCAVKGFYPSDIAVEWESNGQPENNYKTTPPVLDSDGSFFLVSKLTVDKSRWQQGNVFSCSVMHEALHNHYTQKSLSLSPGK
# light: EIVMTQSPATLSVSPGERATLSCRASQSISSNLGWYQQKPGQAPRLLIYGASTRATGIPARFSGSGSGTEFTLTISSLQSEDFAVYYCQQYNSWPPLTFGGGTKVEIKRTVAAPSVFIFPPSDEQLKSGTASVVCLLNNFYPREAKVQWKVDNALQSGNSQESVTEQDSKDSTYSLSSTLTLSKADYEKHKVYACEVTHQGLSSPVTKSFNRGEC
# notes: B7H4 x CD3, 2+1 asymmetric structure (structure 5): CD3 end from PR001924, two B7H4 Fabs from PR001476
# B3: PR002857 (bispecific antibody, human IgG1, kappa, lambda, L234A L235A)
# chain 1: B1 chain 1
# chain 2: B1 chain 2
# heavy: not shown
# light: not shown
# notes: B7H4 x CD3, 1+1 Fab-Fc-crossFab (structure 4): CD3 crossFab from PR001924, B7H4 Fab from PR002408
# B4: PR002856 (bispecific antibody, human IgG1, kappa, lambda, L234A L235A)
# chain 1: B1 chain 1
# chain 2: B1 chain 2
# heavy: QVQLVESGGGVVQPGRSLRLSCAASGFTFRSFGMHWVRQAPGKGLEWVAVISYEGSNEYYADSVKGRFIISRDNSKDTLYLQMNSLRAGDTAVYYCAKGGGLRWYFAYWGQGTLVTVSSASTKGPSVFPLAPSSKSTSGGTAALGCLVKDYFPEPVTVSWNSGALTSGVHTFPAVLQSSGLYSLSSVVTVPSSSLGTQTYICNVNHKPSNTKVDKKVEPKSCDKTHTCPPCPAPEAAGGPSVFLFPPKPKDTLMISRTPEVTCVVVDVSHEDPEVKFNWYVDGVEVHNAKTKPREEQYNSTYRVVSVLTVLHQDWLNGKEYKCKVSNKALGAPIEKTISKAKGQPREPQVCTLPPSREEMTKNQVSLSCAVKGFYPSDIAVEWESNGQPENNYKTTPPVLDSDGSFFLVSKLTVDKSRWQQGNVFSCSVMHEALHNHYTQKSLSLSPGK
# light: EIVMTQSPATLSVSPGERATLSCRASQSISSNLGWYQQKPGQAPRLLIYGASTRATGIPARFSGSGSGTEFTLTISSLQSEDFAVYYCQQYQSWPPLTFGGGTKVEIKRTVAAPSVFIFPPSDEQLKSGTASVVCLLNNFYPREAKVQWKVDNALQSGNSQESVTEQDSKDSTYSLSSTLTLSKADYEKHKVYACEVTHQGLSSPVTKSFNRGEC
# notes: B7H4 x CD3, 1+1 Fab-Fc-crossFab (structure 4): CD3 crossFab from PR001924, B7H4 Fab from PR002405
# B5: PR002849 (bispecific antibody, human IgG1, kappa, L234A L235A)
# light: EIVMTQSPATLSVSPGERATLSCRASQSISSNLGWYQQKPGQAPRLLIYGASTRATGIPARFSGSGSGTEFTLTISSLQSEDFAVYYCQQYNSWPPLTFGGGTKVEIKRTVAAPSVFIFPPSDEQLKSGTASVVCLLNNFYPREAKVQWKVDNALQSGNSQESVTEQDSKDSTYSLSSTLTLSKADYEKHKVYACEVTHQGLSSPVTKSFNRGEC
# heavy: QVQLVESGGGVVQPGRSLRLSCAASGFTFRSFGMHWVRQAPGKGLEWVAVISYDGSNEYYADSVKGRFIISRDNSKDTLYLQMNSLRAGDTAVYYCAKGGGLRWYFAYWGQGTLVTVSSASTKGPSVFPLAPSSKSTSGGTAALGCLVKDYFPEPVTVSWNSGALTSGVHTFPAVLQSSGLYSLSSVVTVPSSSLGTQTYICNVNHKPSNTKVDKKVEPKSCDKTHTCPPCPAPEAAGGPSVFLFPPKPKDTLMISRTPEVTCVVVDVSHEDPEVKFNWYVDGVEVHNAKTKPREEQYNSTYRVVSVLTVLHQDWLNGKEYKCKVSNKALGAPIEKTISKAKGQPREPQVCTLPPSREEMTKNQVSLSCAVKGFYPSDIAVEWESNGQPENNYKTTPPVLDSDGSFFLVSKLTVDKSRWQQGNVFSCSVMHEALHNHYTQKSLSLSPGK
# chain: QAVVTQEPSLTVSPGGTVTLTCRSSTGAVTTSNYANWVQQKPGQAPRGLIGGTNKRAPWTPARFSGSLLGDKAALTLLGAQPEDEAEYFCALWYSNLWVFGGGTKLTVLGGGQSGQGGSGGGGSEVQLVESGGGLVQPGGSLKLSCAASGFTFNTYAMNWVRQASGKGLEWVGRIRSKYNNYATYYADSVKDRFTISRDDSKSTLYLQMNSLKTEDTAVYYCVRHGNFGNSYVSWFAYWGQGTLVTVSSASEPKSSDKTHTCPPCPAPEAAGGPSVFLFPPKPKDTLMISRTPEVTCVVVDVSHEDPEVKFNWYVDGVEVHNAKTKPREEQYNSTYRVVSVLTVLHQDWLNGKEYKCKVSNKALGAPIEKTISKAKGQPREPQVYTLPPCREEMTKNQVSLWCLVKGFYPSDIAVEWESNGQPENNYKTTPPVLDSDGSFFLYSKLTVDKSRWQQGNVFSCSVMHEALHNHYTQKSLSLSPGK
# notes: B7H4 x CD3, 1+1 Fab-Fc-scFv (structure 1): B7H4 Fab from PR001476 (hole, AAG), CD3 scFv(VL-VH)-Fc from PR000627 (knob, AAG)
# B6: PR002850 (bispecific antibody, human IgG1, kappa, L234A L235A)
# light: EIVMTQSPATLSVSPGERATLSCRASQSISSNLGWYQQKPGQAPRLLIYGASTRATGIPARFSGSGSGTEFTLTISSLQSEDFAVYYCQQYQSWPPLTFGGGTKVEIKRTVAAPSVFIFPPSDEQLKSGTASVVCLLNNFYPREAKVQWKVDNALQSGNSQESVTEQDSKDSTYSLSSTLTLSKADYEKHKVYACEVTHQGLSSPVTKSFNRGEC
# heavy: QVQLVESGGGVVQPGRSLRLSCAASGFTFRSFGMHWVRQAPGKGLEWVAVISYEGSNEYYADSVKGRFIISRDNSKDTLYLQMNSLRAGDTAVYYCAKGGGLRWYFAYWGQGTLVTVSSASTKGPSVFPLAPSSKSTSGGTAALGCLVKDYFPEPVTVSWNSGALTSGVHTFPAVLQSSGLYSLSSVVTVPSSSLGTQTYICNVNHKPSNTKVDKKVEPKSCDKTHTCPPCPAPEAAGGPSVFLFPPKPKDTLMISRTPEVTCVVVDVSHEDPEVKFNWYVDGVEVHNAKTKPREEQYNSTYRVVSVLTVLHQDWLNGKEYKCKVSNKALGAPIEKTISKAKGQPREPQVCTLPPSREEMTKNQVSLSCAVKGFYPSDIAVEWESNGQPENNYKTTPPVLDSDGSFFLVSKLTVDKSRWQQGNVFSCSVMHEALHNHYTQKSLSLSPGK
# chain: B5 chain
# notes: B7H4 x CD3, 1+1 Fab-Fc-scFv (structure 1): B7H4 Fab from PR002405, CD3 scFv-Fc from PR000627
# B7: PR002851 (bispecific antibody, human IgG1, kappa, L234A L235A)
# light: not shown
# heavy: not shown
# chain: B5 chain
# notes: B7H4 x CD3, 1+1 Fab-Fc-scFv (structure 1): B7H4 Fab from PR002408, CD3 scFv-Fc from PR000627
# B8: PR003733 (bispecific antibody, human IgG1, lambda, L234A L235A)
# light: QAVVTQEPSLTVSPGGTVTLTCRSSTGAVTTSNYANWVQQKPGQAPRGLIGGTNKRAPWTPARFSGSLLGDKAALTLLGAQPEDEAEYFCALWYSNLWVFGGGTKLTVLGQPKAAPSVTLFPPSSEELQANKATLVCLISDFYPGAVTVAWKADSSPVKAGVETTTPSKQSNNKYAASSYLSLTPEQWKSHRSYSCQVTHEGSTVEKTVAPTECS
# heavy: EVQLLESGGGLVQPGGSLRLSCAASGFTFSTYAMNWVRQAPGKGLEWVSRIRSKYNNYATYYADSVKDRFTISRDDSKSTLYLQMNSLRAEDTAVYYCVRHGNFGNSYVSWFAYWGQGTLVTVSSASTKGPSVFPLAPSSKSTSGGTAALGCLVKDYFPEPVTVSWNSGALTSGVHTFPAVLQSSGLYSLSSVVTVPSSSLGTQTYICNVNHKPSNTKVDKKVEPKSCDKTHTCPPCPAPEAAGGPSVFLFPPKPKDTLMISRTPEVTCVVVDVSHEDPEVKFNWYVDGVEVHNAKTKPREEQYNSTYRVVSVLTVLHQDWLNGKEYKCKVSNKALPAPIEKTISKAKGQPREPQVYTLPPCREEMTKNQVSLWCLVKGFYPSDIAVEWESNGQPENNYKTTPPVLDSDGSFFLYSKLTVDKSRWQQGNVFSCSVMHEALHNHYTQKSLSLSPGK
# chain: EIVMTQSPASLSVSPGERATLSCRASQSVSSNLAWYQQKPGQAPRLLIYGASTRATGIPARVSGGGSGTEFTLTISSLQSEDFAVYYCQQYKNWPFTFGPGTKLEIKGGGGSGGGGSGGGGSGGGGSQVQLVQSGAEVKKPGSSMRVSCKASEDTFSSYAISWVRQAPGQGLEWMGGTAPIFGTTNYAQKFQGRVTITADKSTSTAYMELSSLRSEDTAVYYCARGGPYFDYWGQGTLVTVSSASEPKSSDKTHTCPPCPAPEAAGGPSVFLFPPKPKDTLMISRTPEVTCVVVDVSHEDPEVKFNWYVDGVEVHNAKTKPREEQYNSTYRVVSVLTVLHQDWLNGKEYKCKVSNKALPAPIEKTISKAKGQPREPQVCTLPPSREEMTKNQVSLSCAVKGFYPSDIAVEWESNGQPENNYKTTPPVLDSDGSFFLVSKLTVDKSRWQQGNVFSCSVMHEALHNHYTQKSLSLSPGK
# notes: B7H4 x CD3, 1+1 Fab-Fc-scFv: CD3 Fab from PR001848 (knob, LALA; strong CD3 end), B7H4 scFv(VL-VH)-Fc (hole, LALA)
# Molecular target: CD3 on human T cells (human, UniProt P07766 23-207; P04234 22-171; P09693 23-182)
# Test: FACS on human T cells; EC50 printed as n.d., curve still rising at 100 nM
# Experimental: (§1) SK-BR-3 cells were digested. T cells were isolated using the human T cell isolation kit (Miltenyi, #130-096-535) as described in the method of the instruction, and resuspended with PBS containing 2% BSA. The cell density was adjusted to 1×10⁶ cells/mL. The cells were seeded in a 96-well V-bottom plate (Corning, #3894) at 100 μL/well, followed by the addition of test antibodies diluted in a 3-fold gradient at a concentration that was 2 times the final concentration, each at 100 μL/well. The cells were incubated at 4° C. for 2 h away from light. Thereafter, the cells in each well were rinsed twice with 100 μL of pre-cooled PBS containing 2% BSA, and centrifuged at 500 g at 4° C. for 5 min, and then the supernatant was discarded. Then each well was added with 100 μL of fluorescent secondary antibody (Alexa Fluor 488-conjugated AffiniPure Goat Anti-Human IgG, Fcγ Fragment Specific, Jackson, #109-545-098, diluted in a 1:500 ratio), and the plate was incubated away from light at 4° C. for 1 h. The cells in each well were washed twice with 100 μL of pre-cooled PBS containing 2% BSA, and centrifuged at 500 g at 4° C. for 5 minutes, and then the supernatant was discarded. Finally, the cells in each well were resuspended with 200 μL of pre-cooled PBS containing 2% BSA, and the fluorescence signal values were read using an ACEA Novocyte3000 flow cytometer.
# Chain of CD3 on human T cells (P07766 23-207 limits assumed, chain 1 of 3): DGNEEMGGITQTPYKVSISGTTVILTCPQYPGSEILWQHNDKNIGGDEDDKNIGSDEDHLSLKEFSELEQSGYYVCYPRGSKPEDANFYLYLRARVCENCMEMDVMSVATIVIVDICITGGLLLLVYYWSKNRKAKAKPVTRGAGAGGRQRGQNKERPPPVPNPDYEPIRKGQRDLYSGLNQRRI
# Chain of CD3 on human T cells (P04234 22-171 limits assumed, chain 2 of 3): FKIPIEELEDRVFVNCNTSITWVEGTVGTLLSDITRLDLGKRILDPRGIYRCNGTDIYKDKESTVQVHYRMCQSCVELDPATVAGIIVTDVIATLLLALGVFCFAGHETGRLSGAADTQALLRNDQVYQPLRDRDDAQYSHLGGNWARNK
# Chain of CD3 on human T cells (P09693 23-182 limits assumed, chain 3 of 3): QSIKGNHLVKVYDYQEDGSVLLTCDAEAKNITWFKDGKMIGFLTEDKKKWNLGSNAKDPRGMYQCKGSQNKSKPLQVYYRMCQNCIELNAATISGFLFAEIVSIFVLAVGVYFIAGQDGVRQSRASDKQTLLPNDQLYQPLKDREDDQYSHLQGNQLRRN
row,Binder,Maximum MFI
1,B1,197000
2,B2,73600
3,B3,187000
4,B4,189000
5,B5,121000
6,B6,133000
7,B7,125000

# Molecular target: T1, human B7H4 on the cell surface
# Test: FACS on SK-BR-3 cells
# Experimental: as §1
Binder,EC50 [nM],Maximum MFI
B1,4.05,179000
B2,0.145,193000
B4,1.32,212000
B5,0.933,146000
B6,0.676,179000
B8,71.2,214000
